assay: yeast display, Sf9 membrane polyspecificity reagent, FACS + sequencing; frameworks hold sequencing errors
In short: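 Galactose induction of a Saccharomyces cerevisiae BJ5465 synthetic nanobody display library ran 36–48 hours. The cells were then stained for 1 hour at 4 °C with 10% biotinylated, detergent-solubilized Sf9 membrane reagent, pulled down on streptavidin microbeads and FACS-sorted into low and high (top ~1%) gates on expression and reagent-binding fluorescence. Labels for polyreactivity follow the gate of origin.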

Row | Sequence | polyreactivity (PSR sort gate)
1 | QVQLVESGGGLVQAGGSLRLSCAPCGFTFRRNAMGWYRQAPGKERELVAAINWSGGSTYYADSVKGRFTLSRDNAKNNVYLQMNSLKPEDTAVYYCNRRGQYTFWPIHEYWGQGTQVTVSS | high polyreactivity
2 | QVQLVESGGGLVQAGGSLRLSCAPSAFTFKYYSMGWYRHTPGKESELVAVISWSGGSTYYADSVKGRFTISRDYAKNTVYLHMNSQKPEDTAVYYCAAYERKFYTVSRWYKLDYWGQGTQVTVSS | high polyreactivity
3 | QVQLVESGGGLVQAGGSLRLSCAPSGCTLGAYAMGWYRQAPGKVRELVADISSRGASTYYEDSVKGRFTISRDHAKNTVYIQMNSLKPEDTAVYDCARAVYIWYGYGYFPEYEYWGQGTQVTVSS | low polyreactivity
4 | QVQLVESGGGLVQAGGSLRLSCAPSGFIFIRYAMGWYRQAPGKERELVASISWRGESTYYADSVKWRFTISRDNAKNTVYLQRNILKPEDTAVYYCAATGINSGPGRMDYWGQGTQVTVSS | high polyreactivity
5 | QVQLVESGGGLVQAGGSLRLSCAPSGFIFYTNAMGWYRQAPGKDRELVAAITCIGVSTYYADSVKGRFTISRDYAKNTVYLKMNSLKPEDTEVYYCAADRNFLIFTPDNLTMDYWGQGTQVTVSS | low polyreactivity
6 | QVQLVESGGGLVQAGGSLRLSCAPSGFSFRQYAMGWYRQAPGKERELVAAISSSGGRTYYADSVKGRCTISRDNAKNTVYLQMNSLKPEDSAVYYCNARAWLRGEYGEGYWGQGTQVTVSS | high polyreactivity
7 | QVQLVESGGGLVQAGGSLRLSCAPSGFTFDPYAMGWYRQAPGKERELVAAIDYSGGTTYYADSVKGRFTISRDNAKNTVYLQMNSLKPEDTAVYYCAAEYTYYHWWGYDYWGQGTQVTVSS | high polyreactivity
8 | QVQLVESGGGLVQAGGSLRLSCAPSGFTFLGYDMGWYRQAPGKERELVAAIDYSGGSTYYADSVKGRFTISRDNAKNTVFLQMNSLKPEDTAVYDCAAEYQSGPYTWYEYWGQGTQVTVSS | high polyreactivity
9 | QVQLVESGGGLVQAGGSLRLSCAPSGFTFLYYVMGWYRQAPGKERELVAAINAGGGSTYYAESVKGRFTLSRDNAKNSVYLQMKSLKPADTAVYYCNARVRVRLGRNWSSYYDWGQGTQVTVSS | high polyreactivity
10 | QVQLVESGGGLVQAGGSLRLSCAPSGFTFRIYAMGWYRQAPGKERELVAAISWAGGSTFYADSVKGRFTISRDNAKNTVYLQLNSLKPEDTAVYYCAADTAFNYDYWGQGTQVTVSS | low polyreactivity
11 | QVQLVESGGGLVQAGGSLRLSCAPSGGTFPVYAMGWYRQAPGKERELVAAISYSGVTTYNADSVKGRFTISRDNAKNTVYLQMNSLKPEVTAVYYCNADWRPWYMFSYDYWGQGTQVTVSS | low polyreactivity
12 | QVQLVESGGGLVQAGGSLRLSCAPSGIFYKYAMGWYRQAPGKERELVAAISISGTSTYYADSVKGRFTISRDNAKNTVYLQMNSLKPEDTAVYYCAADEFYFAPPVAGENYWGQGTQVTVSS | low polyreactivity
13 | QVQLVESGGGLVQAGGSLRLSCAPSGIIFQFYAMGWYRQAPGKERELVAAISRSGGITHYADSVKGRFTISRDNAKNTVYLQMNSLKPEDTAVYYCAAVRQAYPRLDYWGQGTQVTVSS | high polyreactivity
14 | QVQLVESGGGLVQAGGSLRLSCAPSGITFRPNAMGWYRQARGKERELVAAISSGDGTYADSVKGRFTISRDNAKNTVYLQMNSLKPEDSAVYYCNATGQSYVTSEYDYWGQGTQVTVSS | low polyreactivity
15 | QVQLVESGGGLVQAGGSLRLSCAPSGITFRVNAMGWYRQAPGKERELVASISRSGGSTYYADSVKGRFTISRDHAKNNVYLQMKSLKPEDTAVYYCADAQKVLFYGRWFDYWGQCTQVTVSS | low polyreactivity
16 | QVQLVESGGGLVQAGGSLRLSCAPSGLIFAHYDMGWYRHAPGKERELVAGITSGGSTNYADSVKGRFTISRDNAKITVYLQMNSQKPEYTAVYYCNADRAGFLGFYLYDYWGQGTQVTVSS | low polyreactivity
17 | QVQLVESGGGLVQAGGSLRLSCAPSGNIFETYAMGWYRPAPGKERELVAVITRGGSTYYADSVKGRFTISRDNAKNTVYLQMNSLKPEDTAVYYCARDAYDDWYGLTDDKSDYWGQGTQVTLSS | low polyreactivity
18 | QVQLVESGGGLVQAGGSLRLSCAPSGRIFNAYAMGWYRQAPGKERELVAAITVSGTRTYYADSVKGRFTISRDNAKNTVYLQMNSLKPEDSAVYYCNAGRGGVLDYGYWGQGTQVTVSS | high polyreactivity
19 | QVQLVESGGGLVQAGGSLRLSCAPSGRIFSINAMGWYRQAPGKERELVAAITSGGSTKYADSVKGRFTISRDNAKNTVYLQMNSLKPEDTAVYYCAAAPGYLYWKVDYNYWGQGTQVTVSS | high polyreactivity
20 | QVQLVESGGGLVQAGGSLRLSCAPSGRIFTHNVRGWYRQAPGKERELVAAISASGGSTYYADSVKGRFTISRDNAKNTVYLQMNSLKPEDTAVYYCNAEWAVRYPGYDYWGQGTQVTVSS | low polyreactivity
21 | QVQLVESGGGLVQAGGSLRLSCAPSGRIFVLYTMGWYRQAPGKERELVAAIRGGGSTNYADSVKGRFTISRDNAKNTVYLQMNSLKPEDTAVSYCAARYYREYDYWGQGTQVTVSS | high polyreactivity
22 | QVQLVESGGGLVQAGGSLRLSCAPSGRIFYSNDMGWYRQAPGKERELVAAIRDSAGSTRYADSVKGRFTISRVNAKNTVYLQMNSLKPEDTAVFYGHKDYVSIYFEYLDDYWGQGTQVTVSS | low polyreactivity

Row | Sequence | polyreactivity (PSR sort gate)
23 | QVQLVESGGGLVQAGGSLRLSCAPSGRIVGKYVMGWDRQAPRKERELVAGICWSAGSTYYADSVKGRFTISRDNAKNTVYLQMNSLKPEDTAVYYCAAGLEGGSDYWGQGTQVTVSS | low polyreactivity
24 | QVQLVESGGGLVQAGGSLRLSCAPSGRIYATYAMGWYRQAPGKDSELVAAISDSGGRTYYADSVKGRFTISRDNAKNTVYLQMKSLKPEVNAVYYCAAKNGDRYARGYWGQGTQVNVSS | high polyreactivity
25 | QVQLVESGGGLVQAGGSLRLSCAPSGRTFYINAMGWYRQAPGKEREFVAAITTSGGGTYYADSVKGRFTISRDNAKNTVYLQMNSLKPEDTAVYYCNTRSRRGKDGRYDYWGQGTQVTVSS | high polyreactivity
26 | QVQLVESGGGLVQAGGSLRLSCAPSGSIFDFNTMGWYRQAPGKERELVAAISQRTGRTYYADSVKGRFTISRDNAKNTVYLQMNSLKPEDTAVYYCARTDRRLGAHQGDYWGQGTQVTVSS | high polyreactivity
27 | QVQLVESGGGLVQAGGSLRLSCAPSGSIFGINARAWYRQAPGKERELVAAISSGGSTNNADSVKGRFTISRDNAKNTVYFQMNSLKPEDTAVYYCAARLYYVRYNYWGQGTQGTVSS | high polyreactivity
28 | QVQLVESGGGLVQAGGSLRLSCAPSGSIFQFYAMGWYRQAPGKESELVAGINTSGGSTYYADSVKGRFTISRDNAKNTVYLQMNSLKPEDTEVYYCMARSRYDTGRQRGYDYWGQGTQVTVSS | low polyreactivity
29 | QVQLVESGGGLVQAGGSLRLSCAPSGSIFRYYAMGWYRQAPGKERELVAAISWSGTSTYYADSVKGRFTISRDNAKNTVYLQMNSLKPEDTAVYYCNKVIPANIRRSYDYWGQGTQVTVSS | high polyreactivity
30 | QVQLVESGGGLVQAGGSLRLSCAPSGSIFSAYAMGWYRQAPGKERELVAAITRGTSTNYADSVKGRFTISRDNAKNTVYLQMNSLKPEDTAVYYCAAEYGWYYVNFYYWGQGTQVTVSS | low polyreactivity
31 | QVQLVESGGGLVQAGGSLRLSCAPSGSIVNRYALGWYRQAPGKEREFVAAITRRGGYTYYADSVKGRFTISRDNAKNSVYLPLNSLKPEDTAVYYCAAPFYYPAGLLYYENNYWRQGTQVTVSS | high polyreactivity
32 | QVQLVESGGGLVQAGGSLRLSCAPSGSTFFSKTMGWYRQAPWKERELVAAINDSGTSTYYADSVKRRFTISRDNSKKTVYLQMNSLKPEDTAVYYCAAYPSGWYDYWGQGTQVTVSS | low polyreactivity
33 | QVQLVESGGGLVQAGGSLRLSCAPSGSTFGYNDMGWYRQAPGKERELVAAIDTGVSTNYADSVKGRFTISRDNAMNTVYLQMNSLKPVDTAVYYLAKSGSAYWHSGWSVGFDYWGQGTQVTVSS | low polyreactivity
34 | QVQLVESGGGLVQAGGSLRLSCAPSGSTFIPNPMGWYRQAPGKERELVAAISRRGGSTNYADSVKGRFTISRDNAKNTVYLQMNSLKPEDTALYYCAAVSPRRYRYDYWGQGPQVTVSS | low polyreactivity
35 | QVQLVESGGGLVQAGGSLRLSCAPSGSTFRPYGMGWYRQAPCKETELVAAINSGDSTYYADSVKGRFTISSDNAKNTVYLQMNSLKPEDTAVYYCAAGYYIRGRYGYWGQATQVTVSS | high polyreactivity
36 | QVQLVESGGGLVQAGGSLRLSCAPSGSTFRRNTMGWYRQAPGKARELVAGISSSGGSTYYADSVKGRFTISRDNAKNTVYLQMNSLKPEDTAVYYCAARFYVSYVGYNYWGQGSQVTVSS | high polyreactivity
37 | QVQLVESGGGLVQAGGSLRLSCAPSGSTFRVYGMGWYRQAPGKETELVAVIRWRGGRTSYADSVKGRFTISRDNAKNTVYLQMNSLKPEDTAVYYCAAAYWNDWSQYDYWGQGTQVTVSS | high polyreactivity
38 | QVQLVESGGGLVQAGGSLRLSCAPSGSTFYPNAKGWYRQAPRKERELVAAISRSGGSTYYADSVKGRFTISRDNAKNTVYLQMNSLKPEDTAVYYCAADGRSPARYDYWGQGTQVTVSS | low polyreactivity
39 | QVQLVESGGGLVQAGGSLRLSCAPSGSTFYVNAMGWYRQAPGKEREFVAAITWNSGSTYYADSVKGRFTISRDNAKNTVYLQMNSLKPEDTAVYYCAADGYHYVTYLVSYGYWGQGTQVTVSS | low polyreactivity
40 | QVQLVESGGGLVQAGGSLRLSCAPSGSTFYYYAMGWYRQAPGKERELVAAITWSGGSTRYADSVKGRFTISRDNAKNTVYLQMKSLKPEDTAVYYCAAYYRKTGFEYWGQGSQVTVSS | high polyreactivity
41 | QVQLVESGGGLVQAGGSLRLSCAPSGSTLYFYAMGWYRQAPGKERELDADITWSGGSTYYADSVKGRFTISRDNAKNTVYLQMNSLKPEDTAVYYCNADDWSTYWYGYPGYVYWGQGTQVTVSS | high polyreactivity
42 | QVQLVESGGGLVQAGGSLRLSCAPSGSTYLSYAMGWYRQAPGKERELVAAITYSGGRTYYAESVKGRFTISRDNAKITVYLQMNSLKQEDTAVYYCAATGVFRDEYWGQGTQVTVSS | low polyreactivity
43 | QVQLVESGGGLVQAGGSLRLSCAPSGYIFEIYAMGWYSQEPGKERELVAAISTRGGRTYYADSVKGRFTISRDKAKNTVYLQMNSLKPEDTAVYYCAAGFPYKFTYVGGYNHWGQGTQVTVSS | low polyreactivity
